From patent US20150307576A1, “FGF-10 COMPLEXES” (PERMEON BIOLOGICS, INC., priority 2012, published 2015)
Numbering of substitutions follows the chain as printed. Numbers in names are those of the source. Where two headings read alike, the source gives them in different places.

Assays:
[1] = Stability following multiple freeze/thaw cycles (protein concentration, analytical SEC); format: physicochemical; details: two freeze/thaw cycles
Method: The stability of this cell penetrating domain of FGF10 was evaluated following multiple freeze/thaw cycles. To do this, protein concentration measurements and analytical size exclusion chromatography were carried out comparing protein which had undergone zero, one, or two freeze/thaw cycles. […] The study indicated about 75% stability of this protein after two freeze/thaw cycles.
Purified protein was subjected to the indicated number of freeze/thaw cycles (each freeze/thaw cycle consisted of snap-freezing the protein in liquid nitrogen, placing it at −80° C. for a minimum of two hours, and then thawing it on ice) and analyzed by size exclusion chromatography. After each thaw, the protein was subjected to 20,000×g centrifugation to remove any precipitation. The protein concentration of each sample was measured by A280, considering the extinction coefficient (24540) and molecular weight (19.57 kDa). In each case 40 μL of the protein was applied to a Superdex 75 10/300 GL column (GE Healthcare). The column running buffer was the same as the protein storage buffer (20 mM Hepes, pH 7.5, 0.5 M NaCl).

[2] = test system: Hela cells; assay: Cell penetrating activity, anti-myc flow cytometry; format: cell-based; details: 1 uM, 20 minutes
Method: On the day prior to the assay, 10^6 Hela cells were plated in each well of a 6-well plate and incubated in the 37° C. CO2 incubator overnight. The cells were washed once with PBS and then were replenished with 1 mL of serum-free DEMEM (A) or media containing 1 uM of the FGF10 domain construct FGF10-myc (B, C, and D) and were incubated for 20 minutes in the 37° C. CO2 incubator. The cells were then washed three times with ice-cold PBS. For (C) and (D), cells were treated with 0.25% trypsin/EDTA and washed three times with PBS. The cells in (D) were fixed for 10 minutes with 1 mL 4% formaldehyde and permealized for 5 minutes with 0.2% saponin. Then 10 uL of 0.1 mg/mL FITC labeled chicken polyclonal anti-myc tag antibody (Abcam #1394) was added to all the cells and incubated at 4° C. in the dark for 2 hours. The cells were washed three times with ice cold PBS. Cells in (A) and (B) were detached with 1 mL 10 mM EDTA. Cells were analyzed using a BD Accuri™ C6 flow cytometer.

[3] = Cellular distribution, microautoradiography (MARG); format: in vivo, mice
Method: To obtain specific cell-type uptake information in select organs, microautoradiography analysis was performed on selected organs collected at various time points. For microautoradiography analysis (MARG), animals were anesthetized and blood collected, as described above. Tissue samples are trimmed to be approximately 0.5 cm^2, placed into cryosectioning embedding media on a cryosectioning sample holder, and frozen in isopentane that is cooled with liquid nitrogen. Frozen samples were stored in liquid nitrogen until analysis by MARG. For analysis, tissues were cryosectioned at 5 μm under darkroom conditions, and collected onto glass slides that are pre-coated with photographic emulsion (Kodak NTB photographic emulsion). Slides were placed in sealed light-safe slide boxes and allowed to expose the photographic emulsion for 7 days before being developed, fixed and stained with hematoxylin and eosin. All slides were examined for cellular localization using light microscopy.

[4] = mouse, in vivo
[5] = mouse, in vivo; remark: listed apart in the source
[6] = test system: SKOV-3 ovarian cancer cells; assay: SKOV-3 cell viability, MTS assay; format: cell-based, human; details: 100 uM, 4-hour treatment, 3 days of growth
[7] = target: FGFR2b receptor (Homo sapiens, UniProt P21802); details: relative to unmodified FGF10; cited from earlier work
[8] = test system: mitogenic activity; details: relative to wild-type; cited from earlier work
[9] = test system: HepG2, Hela and SW626 cells; assay: Internalization of p16 fusion proteins, flow cytometry; format: cell-based; details: 2 uM, overnight
Method: On the day prior to the assay, HepG2 (hepatoma), Hela cells, and 10^6 SW626 cells (ovarian) were plated in each well of a 6-well plate and incubated in the 37° C. CO2 incubator. The cells were washed once with PBS and then were replenished with 2 mL of growth media containing 2 uM of p16, +36GFP-p16 or FGF10-p16 proteins and were incubated overnight in the 37° C. CO2 incubator. The cells were then washed once with PBS and detached with 0.25% trypsin/EDTA. The cells were fixed for 10 minutes with 1 mL 4% formaldehyde and permeabilized for 5 minutes with 0.5 mL 0.4% saponin. Then 2.5 uL of 1 mg/mL FITC labeled chicken polyclonal anti-myc tag antibody (Abcam #1394) was added to all the cells and incubated at 4° C. in the dark for 2 hours, except for cells treated with +36GFP-p16 (GFP itself was used for detection). The cells were washed twice with ice cold PBS and were analyzed using a BD Accuri™ C6 flow cytometer.

[10] = test system: mitogenic activity; assay: Mitogenic activity of FGF10 variants; details: tetramutant vs native FGF10
[11] = trypsin, fixed and permeabilized

Chain of FGFR2b receptor (P21802 22-822 isoform P21802-3 limits assumed): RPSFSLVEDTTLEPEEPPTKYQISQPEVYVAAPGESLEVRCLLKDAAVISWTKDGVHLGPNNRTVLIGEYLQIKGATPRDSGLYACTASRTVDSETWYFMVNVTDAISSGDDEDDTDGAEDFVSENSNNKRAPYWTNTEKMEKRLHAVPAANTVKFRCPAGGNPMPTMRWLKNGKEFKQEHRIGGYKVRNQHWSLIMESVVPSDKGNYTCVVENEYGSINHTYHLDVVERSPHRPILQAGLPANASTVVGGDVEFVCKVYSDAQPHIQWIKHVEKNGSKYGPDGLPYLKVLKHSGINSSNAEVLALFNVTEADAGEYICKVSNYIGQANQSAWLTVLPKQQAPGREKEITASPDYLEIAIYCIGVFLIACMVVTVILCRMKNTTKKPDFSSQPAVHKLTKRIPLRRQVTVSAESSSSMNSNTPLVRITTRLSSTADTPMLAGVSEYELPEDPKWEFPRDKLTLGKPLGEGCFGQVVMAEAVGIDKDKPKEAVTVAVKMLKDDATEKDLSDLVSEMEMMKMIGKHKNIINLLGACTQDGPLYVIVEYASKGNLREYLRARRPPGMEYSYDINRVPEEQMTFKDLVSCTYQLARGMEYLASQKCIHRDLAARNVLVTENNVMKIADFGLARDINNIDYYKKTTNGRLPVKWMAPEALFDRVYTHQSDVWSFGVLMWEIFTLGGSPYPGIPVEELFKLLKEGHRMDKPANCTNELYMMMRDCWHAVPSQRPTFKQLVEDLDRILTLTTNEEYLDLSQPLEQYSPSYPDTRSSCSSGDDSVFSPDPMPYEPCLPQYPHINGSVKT

For FGF10, the “stability after freeze/thaw cycles” value ([1]; listed as His6-FGF10-myc) was 75%, the “stability after freeze/thaw cycles” value ([1]; listed as Hisx6-FGF10-Myc) was “about 75%” and the “cells with protein present on the cell membrane” value ([2]; no trypsin) was 98.8%. The “cells stained positive for FGF10 after trypsin treatment (internalized)” value [2, 11] was “almost all the cells stained positive”, the “cellular distribution in kidney” value ([3]; kidney MARG) was “uniformly distributed throughout the kidney” and the “cellular distribution in liver” value ([3]; liver MARG) was “uniformly distributed throughout the liver tissue including in hepatocytes”. For the same molecule, the “partitioning between plasma compartment and blood cell compartment” value [4] was “favor the plasma compartment” and the “levels of injected protein in liver, spleen, kidney, urinary bladder, adrenal gland, thyroid gland” value [5] was “high levels”.

With `CC(=O)c1c(C)c2cnc(Nc3ccc(N4CCNCC4)cn3)nc2n(C2CCCC2)c1=O` [PD-0332991] the “inhibition of cell proliferation” value [6] was “complete inhibition of cell proliferation”.

B1: FGF10 E158K/K195A: FGF10 mutant with two substitutions E158K/K195A; domain variant in SEQ ID NO: 8 (protein)
chain: GRHVRSYNHLQGDVRWRKLFSFTKYFLKIEKNGKVSGTKKENCPYSILEITSVEIGVVAVKAINSNYYLAMNKKGKLYGSKEFNNDCKLKERIEKNGYNTYASFNWQHNGRQMYVALNGKGAPRRGQKTRRANTSAHFLPMVVHS
In the case of B1, the “decrease in binding to the FGFR2b receptor” value [7] is listed as “approximately 4 fold”.

B2: FGF10 R78A: FGF10 mutant with one substitution R78A; domain variant in SEQ ID NO: 9 (protein)
chain: B1 chain with R15A, K95E, A132K
For B2, the “decrease in binding to the FGFR2b receptor” value [7] is listed as “approximately 4 fold” and the mitogenic activity [8] is listed as “significant decrease”.

B3: FGF10-p16: fusion protein of FGF10 domain and full length human p16, SEQ ID NO: 6 (protein)
chain: MEQKLISEEDLGSGRHVRSYNHLQGDVRWRKLFSFTKYFLKIEKNGKVSGTKKENCPYSILEITSVEIGVVAVKAINSNYYLAMNKKGKLYGSKEFNNDCKLKERIEENGYNTYASFNWQHNGRQMYVALNGKGAPRRGQKTRRKNTSAHFLPMVVHSGHGGGGSGGGGSMEPAAGSSMEPSADWLATAAARGRVEEVRALLEAGALPNAPNSYGRRPIQVMMMGSARVAELLLLHGAEPNCADPATLTRPVHDAAREGFLDTLVVLHRAGARLDVRDAWGRLPVDLAEELGHRDVARYLRAAAGGTRGSNHARIDAAEGPSDIPDGHGHHHHHH
In the case of B3, the “treated cells stained positive” value [9, 11] is reported as roughly 30%.

B4: p16: human p16 tumor suppressor protein alone, SEQ ID NO: 5 (protein, listed as Homo sapiens)
chain: MEPAAGSSMEPSADWLATAAARGRVEEVRALLEAGALPNAPNSYGRRPIQVMMMGSARVAELLLLHGAEPNCADPATLTRPVHDAAREGFLDTLVVLHRAGARLDVRDAWGRLPVDLAEELGHRDVARYLRAAAGGTRGSNHARIDAAEGPSDIPD
In the case of B4, the cell penetration [9] is reported as “does not”.

B5: tetramutant: variant of FGF10 domain with four substitutions at positions 78, 114, 158, 195, SEQ ID NO: 10 (protein)
chain: B1 chain with R15A, T51R, K95A
In the case of B5, the mitogenic activity [10] is reported as “reduced mitogenic activity”.
